Measurements reported in PMC2581521 (2008).

Molecular target: T1, Chordin (Xenopus laevis, UniProt Q91713)
T1 chain: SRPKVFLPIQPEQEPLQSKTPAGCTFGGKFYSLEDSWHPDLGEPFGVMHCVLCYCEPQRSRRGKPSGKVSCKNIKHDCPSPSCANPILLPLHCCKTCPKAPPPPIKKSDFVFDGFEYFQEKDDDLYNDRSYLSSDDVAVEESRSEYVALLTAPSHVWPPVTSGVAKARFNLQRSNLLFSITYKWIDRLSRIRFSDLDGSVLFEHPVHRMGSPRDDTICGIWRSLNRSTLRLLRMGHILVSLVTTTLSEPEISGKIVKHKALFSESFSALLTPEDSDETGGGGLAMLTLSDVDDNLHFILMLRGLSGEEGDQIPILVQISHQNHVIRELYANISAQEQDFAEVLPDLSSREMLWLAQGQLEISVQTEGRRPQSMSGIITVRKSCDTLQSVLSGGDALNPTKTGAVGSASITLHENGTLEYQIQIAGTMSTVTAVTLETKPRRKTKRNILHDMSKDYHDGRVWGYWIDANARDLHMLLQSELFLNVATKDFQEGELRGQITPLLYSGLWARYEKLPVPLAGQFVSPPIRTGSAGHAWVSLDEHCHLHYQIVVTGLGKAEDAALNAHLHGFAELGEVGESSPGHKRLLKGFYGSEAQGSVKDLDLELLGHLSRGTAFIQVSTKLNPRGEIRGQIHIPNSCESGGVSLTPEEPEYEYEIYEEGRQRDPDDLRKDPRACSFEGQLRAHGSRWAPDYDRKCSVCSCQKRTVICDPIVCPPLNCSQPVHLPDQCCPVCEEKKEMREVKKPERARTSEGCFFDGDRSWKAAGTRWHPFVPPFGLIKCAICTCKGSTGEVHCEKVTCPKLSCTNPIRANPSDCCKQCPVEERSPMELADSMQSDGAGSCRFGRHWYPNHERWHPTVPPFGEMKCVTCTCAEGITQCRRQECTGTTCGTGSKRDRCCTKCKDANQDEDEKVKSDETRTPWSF
Assay: SPR

B1: Crossveinless-2 (protein)
chain: not shown
  Kd: 1.37 nM
